In IntAct's records for PubMed 12529400:

B1: Homeodomain-interacting protein kinase 1 (Mus musculus), O88904 (parent)
chain: MASQLQVFSPPSVSSSAFCSAKKLKIEPSGWDVSGQSSNDKYYTHSKTLPATQGQASSSHQVANFNLPAYDQGLLLPAPAVEHIVVTAADSSGSAATATFQSSQTLTHRSNVSLLEPYQKCGLKRKSEEVESNGSVQIIEEHPPLMLQNRTVVGAAATTTTVTTKSSSSSGEGDYQLVQHEILCSMTNSYEVLEFLGRGTFGQVAKCWKRSTKEIVAIKILKNHPSYARQGQIEVSILSRLSSENADEYNFVRSYECFQHKNHTCLVFEMLEQNLYDFLKQNKFSPLPLKYIRPILQQVATALMKLKSLGLIHADLKPENIMLVDPVRQPYRVKVIDFGSASHVSKAVCSTYLQSRYYRAPEIILGLPFCEAIDMWSLGCVIAELFLGWPLYPGASEYDQIRYISQTQGLPAEYLLSAGTKTTRFFNRDPNLGYPLWRLKTPEEHELETGIKSKEARKYIFNCLDDMAQVNMSTDLEGTDMLAEKADRREYIDLLKKMLTIDADKRITPLKTLNHQFVTMSHLLDFPHSSHVKSCFQNMEICKRRVHMYDTVSQIKSPFTTHVAPNTSTNLTMSFSNQLNTVHNQASVLASSSTAAAATLSLANSDVSLLNYQSALYPSSAAPVPGVAQQGVSLQPGTTQICTQTDPFQQTFIVCPPAFQTGLQATTKHSGFPVRMDNAVPIVPQAPAAQPLQIQSGVLTQGSCTPLMVATLHPQVATITPQYAVPFTLSCAAGRPALVEQTAAVLQAWPGGTQQILLPSAWQQLPGVALHNSVQPAAVIPEAMGSSQQLADWRNAHSHGNQYSTIMQQPSLLTNHVTLATAQPLNVGVAHVVRQQQSSSLPSKKNKQSAPVSSKSSLEVLPSQVYSLVGSSPLRTTSSYNSLVPVQDQHQPIIIPDTPSPPVSVITIRSDTDEEEDNKYKPNSSSLKARSNVISYVTVNDSPDSDSSLSSPHPTDTLSALRGNSGTLLEGPGRPAADGIGTRTIIVPPLKTQLGDCTVATQASGLLSSKTKPVASVSGQSSGCCITPTGYRAQRGGASAVQPLNLSQNQQSSSASTSQERSSNPAPRRQQAFVAPLSQAPYAFQHGSPLHSTGHPHLAPAPAHLPSQPHLYTYAAPTSAAALGSTSSIAHLFSPQGSSRHAAAYTTHPSTLVHQVPVSVGPSLLTSASVAPAQYQHQFATQSYIGSSRGSTIYTGYPLSPTKISQYSYL

Variants of: B1
Conditions: with daxx_human DAXX

effect of a mutation on the interaction | Variant
decreasing interaction | K219A

Variants of: B1
Conditions: with daxx_mouse Daxx

effect of a mutation on the interaction | Variant
decreasing interaction | K219A
